Biological target: fluorescein-labeled FITC-casein
Test: fluorescence polarisation

## ClpB_(K-12) (from UniProt P63284 1-857) (enzyme)
  Kd: 560 nM

Reference: publication PMC7984374
